Test results reported in patent publication US20250026816A1, “Antibodies for Use as Therapeutics Against Bacterial Infections” (priority 2021, published 2025).

B1: Antibody 1550 (antibody, V domains shown)
VH: QVQLVESGGGVVQPGRSLRLSCAASGFTFSSYGMHWVRQAPGKGLEWVAVISYDGSNKYYADSVKGRFTISRDNSKNTLYLQMNSLRAEDTAVYYCAKESLTMVRGEGFDPWGQGTLVTVSS
VL: DIQMTQSPSSVSASVGDRVTITCRASQGISSWLAWYQQKPGKAPKLLIYAASSLQSGVPSRFSGSGSGTDFTLTISSLQPEDFATYYCQQANSFPCSFGQGTKLEIK
notes: also called PPB-1550
B2: Antibody 1349 (antibody, V domains shown)
VH: QITLKESGPTLVKPTQTLTLTCTFSGFSLSTSGVGVGWIRQPPGKALEWLALIYWDDDKRYSPSLKSRLTITKDTSKNQVVLTMTNMDPVDTATYYCAHSYYYDSSDSYYFDYWGQGTLVTVSS
VL: DIQLTQSPSFLSASVGDRVTITCWASQGISSRLAWYQQKPGKAPKLLIYAASTLQSGVPSRFSGSGSGTEFTLTISSLQPEDFGNYYCQQFNTYPFTFGPGTKVDIKR
notes: It was expressed as human IgG1; also called PPB-1349
B3: Antibody 1042: anti-OC1 LOS antibody; VH SEQ ID No: 188, VL SEQ ID No: 191 (antibody, V domains shown)
VH: QITLKESGPTLVKPTQTLTLTCTFSGFSLSTSGVGVGWIRQPPGKALEWLAVIYWDDDKRYSPSLKSRVTITKDTSKNQVVLTMTNMDPVDTATYYCAHSYYHDSSDSYYFDYWAQGTLVTVSS
VL: DIQLTQSPSFLSASVGDRVTITCWASQGISSRLAWYQQKPGKAPKLLIYAASTLQSGVPSRFSGSGSGTEFTLTISSLQPEDFATYYCQQLTSYPFTFGPGTKVDIK
B4: Antibody 1548 (antibody, V domains shown)
VH: QVQLVESGGGVVQPGRSLRLSCAASGFTFSSYAMHWVRQAPGKGLEWVAVISYDGSNKYYADSVKGRFTISRDNSKNTLYLQMNSLRAEDTAVYYCAGYGGNSLDPWGQGTLVTVSS
VL: AIQMTQSPSSLSASVGDRVTITCRASQGIRNDLVWYQQKPGKAPKVLIYDASSLQSGVPSRFSGSGFGTDFTLTISSLQPEDFATYYCLQDYNYPCSFGQGTKLEIK
notes: also called PPB-1548
B5: Antibody 1348 (antibody, V domains shown)
VH: EVQLVESGGGFVQPGRSLRLSCIASGFTFDDYAMHWVRQTPGKGLEWVSVISWNSVSIGYADSVKGRFTISRDNAKNSLYLQMNSLRAEDTALYYCARYSSGPDAFDIWGQGTMVTVSS
VL: DIQMTQSPSSLSASVGDRVTITCRASQDIRNDLGWYQQKPGKAPKRLIYAASSLQSGVPSRFSGSGFGTEFTLTISSLQPEDFATYYCLQHYTYPPTFGGGTRVEIK
notes: Only variable domains are tied to 1348; also called PPB-1348
B6: 1348 (antibody, V domains shown)
VH: EVQLVESGGGFVQPGRSLRLSCIASGFTFDDYAMHWVRQTPGKGLEWVSVISWNSVSIGYADSVKGRFTISRDNAKNSLYLQMNSLRAEDTALYYCARYSSGPDAFDIWGQGTMVTVSS
VL: DIQMTQSPSSLSASVGDRVTITCRASQDIRNDLGWYQQKPGKAPKRLIYAASSLQSGVPSRFSGSGFGTEFTLTISSLQPEDFATYYCLQHYTYPPTFGGGTRVEIK
B7: Antibody 1540 (antibody, V domains shown)
VH: EVQLVESGGGFVQPGRSLRLSCIASGFTFDDYAMHWVRQTPGKGLEWVSVISWNSVSIGYADSVKGRFTISRDNAKNSLYLQMNSLRAEDTALYYCARYSSGPDAFDIWGQGTMVTVSS
VL: DIQMTQSPSSLSASVGDRVTITCRASQDIRNDLGWYQQKPGKAPKRLIYAASSLQSGVPSRFSGSGFGTEFTLTISSLQPEDFATYYCLQHYTYPPTFGGGTRVEIK
notes: also called PPB-1540
B8: 1540 (antibody, V domains shown)
VH: EVQLVESGGGFVQPGRSLRLSCIASGFTFDDYAMHWVRQTPGKGLEWVSVISWNSVSIGYADSVKGRFTISRDNAKNSLYLQMNSLRAEDTALYYCARYSSGPDAFDIWGQGTMVTVSS
VL: DIQMTQSPSSLSASVGDRVTITCRASQDIRNDLGWYQQKPGKAPKRLIYAASSLQSGVPSRFSGSGFGTEFTLTISSLQPEDFATYYCLQHYTYPPTFGGGTRVEIK

Columns and labels:
Oxa-23 [1] = target: T1, Oxa-23 (Acinetobacter baumannii, UniProt Q9L4P2); assay: Specific binding to Oxa-23 on OMVs (summary statement); details: on outer membrane vesicles (OMVs) of Acinetobacter baumannii bacteria
T1 construct: endogenous in cells; host or cells: OMVs of GC2 A. baumannii clinical strains

[2] = target: T2, Oxa-23 carbapenemase enzyme (Acinetobacter baumannii, UniProt Q9L4P2 18-273); assay: binding to Oxa-23 on A. baumannii OMVs; method not given at this place
T2 construct: No signal peptide cleavage site is stated; also called class D beta-lactamase; 30kD protein

[3] = target: T2, Oxa-23 carbapenemase enzyme; assay: serological expression cloning: mAb screened on plaques of a phage expression library of A. baumannii genomic DNA (BAL 084, BAL 276), bound phage sequenced
OC1 LOS = assay: Western blot of extracted LOS; assay type: binding, Acinetobacter baumannii
Source text: (§1) Focusing on the cross-reactive mAbs identified, we used a phage expression library incorporating shotgun A. baumannii genomic DNA from strains BAL 084 and BAL 276. Because the mAbs could potentially bind a polypeptide epitope, we screened mAbs for reactivity with phage plaques from the phage expression library. Using this screening mechanism, we were able to identify individual phage binding to Abs 1348, 1349. By sequencing the phage, we were able to elucidate 1348 and 1349 bound Oxa-23, a class D […] that is a major group of enzymes involved in resistance to carbapenem antibiotics. That we have identified mAbs binding to Oxa-23 in a target agnostic screen is highly significant. […] Secondly, since Oxa-23 is a functional enzyme that inactivates carbapenem and carbapenem resistance is a major clinical issue for the treatment of nosocomial A. baumannii infection, it may be possible to block enzymatic function of Oxa-23 by mAbs and render A. baumannii susceptible to carbapenems. […] The LOS types were determined for a selection of isolates by OCL specific PCR. […] Next, LOS was extracted (with extensive proteinase K treatment to remove any proteins) and analyzed by Western blot using mAb 1042). […] Capsule antigens were extracted from selected strains bearing KL49 and analyzed by subsequent SDS-PAGE and Western blot analysis using the mAb 1416.

E. coli NCTC 13441 LPS = assay: Western blot of extracted LPS (control); assay type: binding; details: E. coli NCTC13441 (025b)
Source text: as §1

Oxa-23 [4] = target: T1, Oxa-23; assay: Phage expression library screen (serological expression cloning) for antigen identification; assay type: binding; details: phage expression library of genomic DNA from strains BAL 084 and BAL 276
Source text: The particular binding antigen (e.g. Oxa-23, OC1 LOS, or KL49) of an antibody may be determined using a phage expression library e.g. as described in Example 5. For example, shotgun A. Baumannii genomic DNA is incorporated into a phage expression library. The antibody is then screened for reactivity with phage plaques from the expression library and the individual phage binding to the antibody is identified. The identified phage is sequenced, and the sequencing information used to elucidate the binding antigen of the antibody. A suitable phage method for antigen identification will be known to a person skilled in the art. For example, a suitable phage method is described in Lodes M J, Dillon D C, Houghton R L, Skeiky Y A. Expression cloning. Methods Mol Med. 2004; 94:91-106. doi: 10.1385/1-59259-679-7:91. PMID: 14959824, the contents of which are incorporated by reference.
Focusing on the cross-reactive mAbs identified, we used a phage expression library incorporating shotgun A. baumannii genomic DNA from strains BAL 084 and BAL 276. […] The LOS types were determined for a selection of isolates by OCL specific PCR. […] Next, LOS was extracted (with extensive proteinase K treatment to remove any proteins) and analyzed by Western blot using mAb 1042). […] Capsule antigens were extracted from selected strains bearing KL49 and analyzed by subsequent SDS-PAGE and Western blot analysis using the mAb 1416.

T1 sequence (Q9L4P2 18-273): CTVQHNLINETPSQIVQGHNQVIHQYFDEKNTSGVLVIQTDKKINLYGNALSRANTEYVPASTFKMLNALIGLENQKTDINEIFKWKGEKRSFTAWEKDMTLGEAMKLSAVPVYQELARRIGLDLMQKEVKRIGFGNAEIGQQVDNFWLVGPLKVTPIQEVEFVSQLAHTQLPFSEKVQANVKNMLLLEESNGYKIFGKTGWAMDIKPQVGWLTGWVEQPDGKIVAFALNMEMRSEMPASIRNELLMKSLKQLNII
T2 sequence (Q9L4P2 18-273 limits assumed): as the sequence (Q9L4P2 18-273) above

Molecule	specific binding to Oxa-23 (Oxa-23 [1])	binding result [2]	other results
B1	specifically bind to Oxa-23	binds	–
B2	–	–	binding result [3]: binds
B3	–	–	binding to extracted LOS (OC1 LOS; ATCC 17978 (OCL2)): no binding; binding to 10kD target in extracted LOS (OC1 LOS; OC1 isolates A. baumannii BAL_191, BAL_339, BAL_372): Specific binding; binding to extracted LPS (E. coli NCTC 13441 LPS): no binding
B4	specifically bind to Oxa-23	binds	–
B5	–	–	binding result [3]: binds
B6	specifically bind to Oxa-23	–	antigen bound, elucidated by sequencing the binding phage (Oxa-23 [4]): bound Oxa-23
B7	–	binds	–
B8	specifically bind to Oxa-23	–	–
